{"source": "the DeepSol protein solubility set"}
{"assay": "soluble on expression in E. coli; label from the status in PepcDB or PDB records"}
{"sequence": "MALSKTIATVTRRICERSAPTREIYLDRIAKAQANHPKRSFLGCANQAHGFAACGSIDKKRLKRNIVGNIGIITAYNDILSAHQPFESFPHLIKETARMFGGVAQVAGGVPAMCDGVTQGNTGMELSLFSRDVIAMATAIGLSHDMFDAALYLGVCDKIVPGLVIGALTFGHLPGIFVPAGPMTSGQGNDEKAKIRQLYAENKIDRQTLLESEARSYHGPGTCTFYGTANSNQVILEMMGLHMPGSSFINANTPLRDALTKEATKRVLEMIALGDSYSPIGLIVDERSFVNAVVGLNATGGSTNHAIHLIAMAAAAGILLTWHDIAEISSVVPLLARIYPNGLADINHFHAAGGMGFVIRELIEAGLVHEDVCTVFGKDLNAYAIEAKLCNDDNVVREPALNESANHKVLTGWRKPFQSDGGIRILLGDLGTAIMKVSSVKSEYWRIEAPVLVFNDQEELQEAFKAGVLNDKDFIAVIRYQGPKANGMPELHKLTTILGVLQDRGQKVALVTDGRMSGASGKIPAAIHVTPEALDDGPIARLQNGDVVCLDAHVGKLAILEDKVEFNARKITLPDLSKNEYGVGRELFRIFRHSVNRADQGASVLIA", "soluble on expression in E. coli": "not soluble"}
{"sequence": "MPTNCAAAGCATTYNKHINISFHRFPLDPKRRKEWVRLVRRKNFVPGKHTFLCSKHFEASCFDLTGQTRRLKMDAVPTIFDFCTHI", "soluble on expression in E. coli": "soluble"}
{"sequence": "MRYLELAQLYQKLEKTTMKLIKTRLVADFLKKVPDDHLEFIPYLILGEVFPEWDERELGVGEKLLIKAVAMATGIDAKEIEESVKDTGDLGESIALAVKKKKQKSFFSQPLTIKRVYQTLVKVAETTGEGSQDKKVKYLADLFMDAEPLEAKYLARTILGTMRTGVAEGLLRDAIAMAFHVKVELVERAYMLTSDFGYVAKIAKLEGNEGLAKVQVQLGKPIKPMLAQQAASIRDALLEMGGEAEFEIKYDGARVQVHKDGSKIIVYSRRLENVTRAIPEIVEALKEAIIPEKAIVEGELVAIGENGRPLPFQYVLRRFRRKHNIEEMMEKIPLELNLFDVLYVDGQSLIDTKFIDRRRTLEEIIKQNEKIKVAENLITKKVEEAEAFYKRALEMGHEGLMAKRLDAVYEPGNRGKKWLKIKPTMENLDLVIIGAEWGEGRRAHLFGSFILGAYDPETGEFLEVGKVGSGFTDDDLVEFTKMLKPLIIKEEGKRVWLQPKVVIEVTYQEIQKSPKYRSGFALRFPRFVALRDDKGPEDADTIERIAQLYELQEKMKGKVES", "soluble on expression in E. coli": "soluble"}
{"sequence": "MAKNKWQPTKHLGIYEYMTKKGKRYGIRVRYKQGNDYPEINKSGFETIAAAKVYKNNIENLKANKKEYVFTNEKLTLNTWFASYMEMFKKKNKSKDTIANKYSIYNNHLEIPFGNYYLTDISLDIYEDFLREKIKNGYANNSVKAMHKLMKSILNAAVRYEKLEKNRLQFAEIEQLEENEVIELKVLETDEFNVFISACRAFFTKYDFTMIYLAVWGMRRGEVMGVKLKNLTFDDAKQQVRITLDSTRTLRTPEGKGTKTPAGRRILLIDGEGYRLLKYSVEKAVSIAKDHGSVLHQDDFIFRNPTSNRPWAVTRMNDLLRKLEKEYDIKVYPHLLRHNFNTQALLAGANSNDLRKFIGHKNSSMTDHYSHATDEGREKLMNTMKDRLSGI", "soluble on expression in E. coli": "not soluble"}
{"sequence": "MATPLWQTIYNNAVLLPESPKAIVHFLGGAFIAAAPQVTYRRLLEGLGDRGFAVIATPFINTFDHTTLADEVGRSYRLAYERLLALGLISPELPIFGVGHSMGSKLHLLMGCAQTSDRRGNVLLAFNNYSARRSIPLLGQLAPALDVTVEFSPSPARTLRLIRDRYSVANNLLVKFRNDEIDQTRDLIGALRDRFPETSEWLRLSGNHLTPVGQSLPQQTGLAWLDGVSQLASRELGRDLEVVTTAIADWCDRQLTAPATVVLEHHHHHH", "soluble on expression in E. coli": "not soluble"}
{"sequence": "MSAPLPPRGRGTASNPLNRFAPTHSEAFDDGWEQDVPPIQLTEVREEIARTVISRNQSPDLPFDRSINPYRGCEHGCIYCYARPSHAYWDLSPGIDFETRLIAKSNVASALEQELSKPGYRCAPINLGANTDPYQPLERERRLTRQVLEVLLRFRHPLTIVTKGSLILRDLDLLRELAEQNLVAVMISLTTLDDELKRILEPRAAAPSARLRAIRTLSGNGIPVGVLCSPMIPMVNDMELERLLQAARDAGARSAAYMLLRLPREVGPLFEEWLAAHYPQRAEHVMSLVRQCRGGEVYDSRFGHRFRGQGPFADLLAQRFAVAMKRLGLDRREGFGLDCSRFAVPGAQMALF", "soluble on expression in E. coli": "not soluble"}
{"sequence": "MDDHAFAAPAPAAPTAPALPMAVLAELTHRCPLQCPYCSNPVELEAASRELSTEDWQRVIGELAALGVLQIHFSGGEPLVRRDLVALVAHADRAGLYTNLITSAVMFTRAKVAELAEAGLAHVQVSLQGASAPVAERIGGFRGGHAKKIEAAAWVRAEGMALTLNAVMHRQNLDELPRIVEMAVEMGAQRLEVAHVQYYGWALKNRAALMPTLAQLDEATRIVEEAQARLSGVLAIDYVIPDYYAVRPKTCMGGWGRQFFNISPSGKVLPCHAAETITGLRFDSVREAPLAEIWQRSEALNLYRGTGWMQEPCRSCIHAEEDFGGCRCQAFALAGDAAATDPACAKSPLHAQLFSLAGAEAEAGADRFLYRNFSGGTPEG", "soluble on expression in E. coli": "not soluble"}
{"sequence": "MTTSGHACPVPAVNGHMTHYPATPYPLLFPPVIGGLSLPPLHGLHGHPPPSGCSTPSPATIETQSTSSEELVPSPPSPLPPPRVYKPCFVCQDKSSGYHYGVSACEGCKGFFRRSIQKNMIYTCHRDKNCVINKVTRNRCQYCRLQKCFEVGMSKESVRNDRNKKKKETSKQECTESYEMTAELDDLTEKIRKAHQETFPSLCQLGKYTTNSSADHRVRLDLGLWDKFSELATKCIIKIVEFAKRLPGFTGLTIADQITLLKAACLDILILRICTRYTPEQDTMTFSDGLTLNRTQMHNAGFGPLTDLVFTFANQLLPLEMDDTETGLLSAICLICGDRQDLEEPTKVDKLQEPLLEALKIYIRKRRPSKPHMFPKILMKITDLRSISAKGAERVITLKMEIPGSMPPLIQEMLENSEGHEPLTPSSSGNTAEHSPSISPSSVENSGVSQSPLVQ", "soluble on expression in E. coli": "soluble"}
{"sequence": "MGSDKIHHHHHHMQSSSTLFPVALLSAERRGDLSEDVYRIKAGNGPDPSVELAITRLGLADQAQAQGVPVILLHGSFSNRRFWYSPKGVGLGAYLARAGFDVWIPEMRGHGLSPRNHDWKHNSVAAYARDDLPLINAFVREQSGQAPHWVGHSLGGTTLVAALGGGFLAAEQLASVALFGTQISRVYWPLKVPPLAWGAKLVLKRWGQISGPRFKRGPEDEPIGLALESMRWHGLFGRFGDKQNDWWAGLAEVDVPLLAVAGAGDFQDPVWACRKLFEQLGGERKQFLRLGREEGFEAFGHVDMLVSKAAQVQVWPLVERWLHNPLLPVHASTVVAEPVPAS", "soluble on expression in E. coli": "not soluble"}
{"sequence": "MGSDKIHHHHHHMVLLILKFHGESVKIKPECAICIIRQVVDAANEITDDEREQFRLIKSTMEVIKDVYGESAVPAWMGTVVHRYLKKISNNNDPYKNLKEKANKIALQYLDKVREMSNTDDELERLRKKVLATIAGNVIDFGAYSTGINIEKLIEDTLNGELKIDNSRKLLNDLKDKNIKKILYICDNAGEIIFDRVLMEEIKKYDKDIVAVVKGKPILNDATLEDAKIAKIDEIAKVITTGSDIIGIILEECSEEFLKEFESADLIIAKGMGNYESLTEYEDKIDKPIYYILKAKCKPVAENIGVDVGDNVLLKR", "soluble on expression in E. coli": "not soluble"}
{"sequence": "MARKTTVAKVGSKGPGSTKKTIQAVRPTVRTQGAVTRSQAALRGHMGITDSSTSTSSSRIPKEKLKKKASSRSRSRSRSKSTRRSRSKSTRSRSRSRSRSRSSTRGKKRAPKKAVTTKAARSISPVKVKKTEAIKSRGSSKTARRVSAAHK", "soluble on expression in E. coli": "not soluble"}
{"sequence": "MGSDKIHHHHHHMTQQTDLQSKTNIDPLAMNDSFLAAADALAVDPMFGIPANVREVIARRGNATRLVILGTKGFGAHLMNVRHERPCEVIAAVDDFRYHSGELYYGLPIISTDRFTELATHDRDLVALNTCRYDGPKRFFDQICRTHGIPHLNFEQAVRAFGLQGNVDYRVDDWGADIVRNIPAFQTLAQRLADDYSVQTLYAVLNFHLTCEPEYYHEVERPYSTLYFRSGLLRFSDSEKMVDCGASIGESLAGLIGVTKGKFERVWMIEPDRINLQTLQNVLRRYTDTNFASRITVHGCGAGENTIRVPFNHEGGHGGFVKPADADHEPADLIDVRPIDDIIDDAPTFIKMDIEGSELSALKGARRAISEHKPKLAISAYHRSTDLLDLTNYILSIRPDYQIGLRHHTPDRWDTCLYFY", "soluble on expression in E. coli": "not soluble"}
{"sequence": "MSLAVEIACLDLEGVLVPEIWIAFAEKTGIESLRATTRDIPDYDVLMKQRLRILDEHGLKLADIQAVISTLKPLEGAVEFVDWLRERFQVVILSDTFYEFSQPLMRQLGFPTLLCHRLITDETDRVVSYQLRQKDPKRQSVLAFKSLYYRIIAAGDSYNDTTMLGEADAGILFHAPDNVIREFPQFPAVHTFDELKKEFIKASNRELVLEGHHHHHH", "soluble on expression in E. coli": "soluble"}
{"sequence": "VTWKGSGQETVGAEPTLWAISDLHTGHLGNKPVAESLYPSSPDDWLIVAGDVAERTDEIRWSLDLLRRRFAKVIWVPGNHELWTTNRDPMQIFGRARYDYLVNMCDEMGVVTPEHPFPVWTERGGPATIVPMFLLYDYSFLPEGANSKAEGVAIAKERNVVATDEFLLSPEPYPTRDAWCHERVAATRARLEQLDWMQPTVLVNHFPLLRQPCDALFYPEFSLWCGTTKTADWHTRYNAVCSVYGHLHIPRTTWYDGVRFEEVSVGYPREWRRRKPYSWLRQVLPDPQYAPGYLNDFGGHFVITPEMRTQAAQFRERLRQRQSR", "soluble on expression in E. coli": "not soluble"}
{"sequence": "MIYAGILAGGTGTRMGISNLPKQFLELGDRPILIHTIEKFVLEPSIEKIVVGVHGDWVSHAEDLVDKYLPLYKERIIITKGGADRNTSIKNIIEAIDAYRPLTPEDIVVTHDSVRPFITLRMIQDNIQLAQNHDAVDTVVEAVDTIVESTNGQFITDIPNRAHLYQGQTPQTFRCKDFMDLYGSLSDEEKEILTDACKIFVIKGKDVALAKGEYSNLKITTVTDLKIAKSMIEKD", "soluble on expression in E. coli": "soluble"}
{"sequence": "MLNIQNYSASPHPGIVAERPQTPSASEHVETAVVPSTTEHRGTDIISLSQAATKIHQAQQTLQSTPPISEENNDERTLARQQLTSSLNALAKSGVSLSAEQNENLRSAFSAPTSALFSASPMAQPRTTISDAEIWDMVSQNISAIGDSYLGVYENVVAVYTDFYQAFSDILSKMGGWLLPGKDGNTVKLDVTSLKNDLNSLVNKYNQINSNTVLFPAQSGSGVKVATEAEARQWLSELNLPNSCLKSYGSGYVVTVDLTPLQKMVQDIDGLGAPGKDSKLEMDNAKYQAWQSGFKAQEENMKTTLQTLTQKYSNANSLYDNLVKVLSSTISSSLETAKSFLQGLEHHHHHH", "soluble on expression in E. coli": "soluble"}
{"sequence": "MSHLKDPTTQYYTGEYPKQKQPTPGIQAKMTPVPDCGEKTYVGSGRLKDRKALVTGGDSGIGRAAAIAYAREGADVAISYLPVEEEDAQDVKKIIEECGRKAVLLPGDLSDEKFARSLVHEAHKALGGLDIMALVAGKQVAIPDIADLTSEQFQKTFAINVFALFWLTQEAIPLLPKGASIITTSSIQAYQPSPHLLDYAATKAAILNYSRGLAKQVAEKGIRVNIVAPGPIWTALQISGGQTQDKIPQFGQQTPMKRAGQPAELAPVYVYLASQESSYVTAEVHGVCGGEHLG", "soluble on expression in E. coli": "soluble"}
{"sequence": "MGSDKIHHHHHHMSLPLRSIHYFVEVARCESFSLAAERLHVSQSAVSHQVALLEGYLGDDLFVRRGRKILLTAVGENYFNEVAGAINAIEGATANVRQYDTRQVKLAVHGSLAVKWLIPALDEFRQRYPNVELTLQMLTQDGNFDTQWADCFITTQPPGMGYQRYHLYDETLKPYCSKALWAEAHRLESAGDLIQYPLLSAISAFASGEPGTDWQRWFKKANLRLPVSARVHHFSHLLLAAEAAKYGQGIALLNEFMTTEQEREESLFELPFHSIQTDDSFYFVYPSSTAKSPGLESLGDWLVALCRTRH", "soluble on expression in E. coli": "not soluble"}
